Drawing on patent publication US20230049752A1 (University of California, published 2023), this text covers FACS signal for nine molecules.

In assay [1] the target is human Claudin-6 (CLDN6) (human) (UniProt P56747). Kind of assay: FACS, limiting dilution, UMUC4 cells.
The target is the same in assay [2]. Briefly: FACS, limiting dilution, ARK2 cells. (In general: In flow cytometry, cells or beads pass a laser one at a time.)
For assay [3] the target is unchanged. Kind of assay: FACS, limiting dilution, OV90 cells.

B1: AB S1 (antibody, V domains shown)
VH: EVQLLESGGGLVQPGGSMRLSCAASGFTFSNYWMNWVRQAPGKGLEWIAQIRLKSDNYATHYTDSVKGRFTISRDDSKRTVYLQMNSLRAEDTGTYYCSDGPPSGSWGQGTLLTVSS
VL: DIQMTQSPSSLSASVGDRVTITCRISENIYSYLAWYQQKPGKAPKLLVYNAKILVEGVPSRFSGSGSGTDFTLTISSLQPEDFGTYYCQHHYTVPWTFGQGTKLEIK
In assay [1], B1 registered an FACS signal at 0.32 nM of 639, an FACS signal at 1.6 nM of 767, an FACS signal at 8 nM of 2330 and an FACS signal at 40 nM of 6680. In assay [1], this molecule registered an FACS signal at 200 nM of 18700 and an FACS signal at 1000 nM of 41500. In assay [2], this molecule yielded an FACS signal at 0.32 nM of 466, an FACS signal at 1.6 nM of 1380, an FACS signal at 8 nM of 3850 and an FACS signal at 40 nM of 25800. The FACS signal at 200 nM in assay [2] was found to be 62500. In assay [3], this molecule had an FACS signal at 0.32 nM of 475, an FACS signal at 1.6 nM of 668, an FACS signal at 8 nM of 2390 and an FACS signal at 40 nM of 10500. Moreover, in assay [3], the FACS signal at 200 nM is 43500.

B2: AB S3 (antibody, V domains shown)
VH: EVQLLESGGGLVQPGGSMRLSCAASGFTFSNYWMNWVRQAPGKGLEWIAQIRLKSDNYVTHYTDSVKGRFTISRDDSKRTVYLQMNSLRAEDTGIYYCSDGPPSGSWGQGTLLTVSS
VL: DIQMTQSPSSLSASVGDRVTITCRISENIYSYLAWYQQKPGKAPKLLVYNAKILVEGVPSRFSGSGSGTDFTLTISSLQPEDFGTYYCQHHYTVPWTFGQGTKLEIK
In assay [1], B2 came in with an FACS signal at 0.32 nM of 533, an FACS signal at 1.6 nM of 647, an FACS signal at 8 nM of 1980 and an FACS signal at 40 nM of 7780. Besides, in assay [1], the FACS signal at 200 nM amounted to 20800 and the FACS signal at 1000 nM was 45300. In assay [2], this molecule yielded an FACS signal at 0.32 nM of 372, an FACS signal at 1.6 nM of 933, an FACS signal at 8 nM of 4830 and an FACS signal at 40 nM of 24600. The FACS signal at 200 nM in assay [2] came to 83600. Besides, in assay [3], the FACS signal at 0.32 nM was found to be 482, the FACS signal at 1.6 nM turned out to be 1040, the FACS signal at 8 nM was found to be 4470 and the FACS signal at 40 nM came to 19500. In addition, the FACS signal at 200 nM in assay [3] amounted to 63100.

B3: AB S2 (antibody, V domains shown)
VH: EVQLLESGGGLVQPGGSMRLSCAASGFTFSNYWMNWVRQAPGKGLEWIAQIRLKSDNYATHYADSVKGRFTISRDDSKRTVYLQMNSLRAEDTGTYYCSDGPPSGSWGQGTLLTVSS
VL: DIQMTQSPSSLSASVGDRVTITCRISENIYSYLAWYQQKPGKAPKLLVYNAKILVEGVPSRFSGSGSGTDFTLTISSLQPEDFGTYYCQHHYTVPWTFGQGTKLEIK
In assay [1], B3 yielded an FACS signal at 0.32 nM of 505, an FACS signal at 1.6 nM of 746, an FACS signal at 8 nM of 2270 and an FACS signal at 40 nM of 6970. In assay [1], this molecule gave an FACS signal at 200 nM of 20000. In assay [2], this molecule returned an FACS signal at 0.32 nM of 608, an FACS signal at 1.6 nM of 956, an FACS signal at 8 nM of 4840 and an FACS signal at 40 nM of 21000. Also, the FACS signal at 200 nM in assay [2] came out at 83400. In assay [3], this molecule came in with an FACS signal at 0.32 nM of 537, an FACS signal at 1.6 nM of 1510, an FACS signal at 8 nM of 3950 and an FACS signal at 40 nM of 18100. In addition, in assay [3], the FACS signal at 200 nM came out at 53400.

B4: AB S7 (antibody, V domains shown)
VH: QVQLVQSGAEVKKPGASVKMSCKASGYTFTTYTIHWVRQAPGQGLEWIGFINPSSGYTEYAQKFQGRVTLTADKSTSTVYMELSSLRSEDTAVYFCANGDYYVAYWGQGTLVTVSS
VL: DIQLTQSPSSLSASVGDRVTMTCTASSSVSSTYFHWYQQKPGKAPKLWIYSTSNLASGVPSRFSGSGSGTDYTLTISSMQPEDAATYYCHQYHRSPLTFGQGTKLEIK
Turning to B4, in assay [1], the FACS signal at 0.32 nM is 1440, the FACS signal at 1.6 nM amounted to 1790, the FACS signal at 8 nM was found to be 3940 and the FACS signal at 40 nM stood at 7970. In assay [1], this molecule returned an FACS signal at 200 nM of 16700 and an FACS signal at 1000 nM of 37300. In assay [2], the FACS signal at 0.32 nM is 876, the FACS signal at 1.6 nM was 2350, the FACS signal at 8 nM was 6290 and the FACS signal at 40 nM was determined as 16000. In assay [2], this molecule gave an FACS signal at 200 nM of 47000 and an FACS signal at 1000 nM of 78700. In assay [3], this molecule showed an FACS signal at 0.32 nM of 586, an FACS signal at 1.6 nM of 1910, an FACS signal at 8 nM of 4500 and an FACS signal at 40 nM of 8570. In assay [3], this molecule displayed an FACS signal at 200 nM of 24000 and an FACS signal at 1000 nM of 53900.

B5: AB S8 (antibody, V domains shown)
VH: QVQLVQSGAEVKKPGASVKMSCKASGYTFTTYTMHWVRQAPGQGLEWIGVINPSSGYTEYAQKFQGRVTLTADKSTSTVYMELSSLRSEDTAVYFCANGDYYVGYWGQGTLVTVSS
VL: DIQLTQSPSSLSASVGDRVTMTCTASSSVSSTYFHWYQQKPGKAPKLWIYSTSNLASGVPSRFSGSGSGTDYTLTISSMQPEDAATYYCHQYHRSPLTFGQGTKLEIK
In assay [1], B5 registered an FACS signal at 0.32 nM of 720, an FACS signal at 1.6 nM of 6220, an FACS signal at 8 nM of 7200 and an FACS signal at 40 nM of 16600. In assay [1], this molecule came in with an FACS signal at 200 nM of 32900 and an FACS signal at 1000 nM of 40500. Also, in assay [2], the FACS signal at 0.32 nM amounted to 1640, the FACS signal at 1.6 nM is 10400 and the FACS signal at 8 nM worked out at 42600. Moreover, in assay [3], the FACS signal at 0.32 nM amounted to 834, the FACS signal at 1.6 nM stood at 6410, the FACS signal at 8 nM came out at 26700 and the FACS signal at 40 nM turned out to be 85900.

B6: AB S9 (antibody, V domains shown)
VH: QVQLVQSGAEVKKPGASVKMSCKASGYTFTTYTIHWVRQAPGQGLEWIGVINPSSGYTDYAQKFQGRVTLTADKSTSTVYMELSSLRSEDTAVYFCANGDYYVGYWGQGTLVTVSS
VL: DIQLTQSPSSLSASVGDRVTMTCTASSSVSSTYFHWYQQKPGKAPKLWIYSTSNLASGVPSRFSGSGSGTDYTLTISSMQPEDAATYYCHQYHRSPLTFGQGTKLEIK
For B6, in assay [1], the FACS signal at 0.32 nM came out at 1910, the FACS signal at 1.6 nM amounted to 11600, the FACS signal at 8 nM is 19200 and the FACS signal at 40 nM amounted to 23900. In assay [1], this molecule registered an FACS signal at 200 nM of 35600. Besides, in assay [2], the FACS signal at 0.32 nM was 2990, the FACS signal at 1.6 nM was 16400 and the FACS signal at 8 nM was 54600. In assay [3], the FACS signal at 0.32 nM is 2940, the FACS signal at 1.6 nM was 14000 and the FACS signal at 8 nM came to 48500.

B7: AB S10 (antibody, V domains shown)
VH: QVQLVQSGAEVKKPGASVKMSCKASGYTFTTYTMHWVRQAPGQGLEWIGFINPSSGYTEYAQKFQGRVTLTADKSTSTVYMELSSLRSEDTAVYYCANGDYYVGYWGQGTLVTVSS
VL: DIQLTQSPSSLSASVGDRVTMTCTASSSVSSTYFHWYQQKPGKAPKLWIYSTSNLASGVPSRFSGSGSGTDYTLTISSMQPEDAATYYCHQYHRSPLTFGQGTKLEIK
In assay [1], B7 registered an FACS signal at 0.32 nM of 874, an FACS signal at 1.6 nM of 2540, an FACS signal at 8 nM of 6850 and an FACS signal at 40 nM of 9940. In assay [1], this molecule came in with an FACS signal at 200 nM of 22200 and an FACS signal at 1000 nM of 35100. Further, in assay [2], the FACS signal at 0.32 nM was 2080, the FACS signal at 1.6 nM was 7690, the FACS signal at 8 nM amounted to 27500 and the FACS signal at 40 nM stood at 68200. Besides, in assay [3], the FACS signal at 0.32 nM is 862, the FACS signal at 1.6 nM was 4690, the FACS signal at 8 nM worked out at 16300 and the FACS signal at 40 nM was determined as 50400. Moreover, the FACS signal at 200 nM in assay [3] was 87900.

B8: AB S12 (antibody, V domains shown)
VH: QVQLVQSGAEVKKPGASVKMSCKASGYTFTTYTMHWVRQAPGQGLEWIGFINPSSGYTEYAQKFQGRVTLTADKSTSTVYMELSSLRSEDTAVYFCANGDYYVGYWGQGTLVTVSS
VL: DIQLTQSPSSLSASVGDRVTMTCTASSSVSSTYFHWYQQKPGKAPKLWIYSTSNLASGVPSRFSGSGSGTDYTLTISSMQPEDAATYYCHQYHRSPLTFGQGTKLEIK
Turning to B8, in assay [1], the FACS signal at 0.32 nM worked out at 947, the FACS signal at 1.6 nM worked out at 1910, the FACS signal at 8 nM is 5040 and the FACS signal at 40 nM amounted to 14800. In assay [1], this molecule had an FACS signal at 200 nM of 37500. In assay [2], this molecule had an FACS signal at 0.32 nM of 1310, an FACS signal at 1.6 nM of 2080, an FACS signal at 8 nM of 8850 and an FACS signal at 40 nM of 22900. The molecule also had an FACS signal at 200 nM in assay [2] of 62300. In assay [3], this molecule came in with an FACS signal at 0.32 nM of 638, an FACS signal at 1.6 nM of 1260, an FACS signal at 8 nM of 4630 and an FACS signal at 40 nM of 14600. In assay [3], the FACS signal at 200 nM is 38300 and the FACS signal at 1000 nM worked out at 83400.

B9: AB S11 (antibody, V domains shown)
VH: QVQLVQSGAEVKKPGASVKMSCKASGYTFTTYTIHWVRQAPGQGLEWIGVINPSSGYTEYAQKFQGRVTLTADKSTSTVYMELSSLRSEDTAVYFCANGDYYVAYWGQGTLVTVSS
VL: DIQLTQSPSSLSASVGDRVTMTCTASSSVSSTYFHWYQQKPGKAPKLWIYSTSNLASGVPSRFSGSGSGTDYTLTISSMQPEDAATYYCHQYHRSPLTFGQGTKLEIK
On to B9, for which, in assay [1], the FACS signal at 0.32 nM amounted to 2350, the FACS signal at 1.6 nM is 2770, the FACS signal at 8 nM was determined as 7000 and the FACS signal at 40 nM came out at 12800. In assay [1], this molecule had an FACS signal at 200 nM of 19900 and an FACS signal at 1000 nM of 33400. In assay [2], this molecule returned an FACS signal at 0.32 nM of 2130, an FACS signal at 1.6 nM of 6100, an FACS signal at 8 nM of 20200 and an FACS signal at 40 nM of 59400. Further, in assay [3], the FACS signal at 0.32 nM is 1460, the FACS signal at 1.6 nM was 4950, the FACS signal at 8 nM is 14700 and the FACS signal at 40 nM came to 44900. The FACS signal at 200 nM in assay [3] turned out to be 85600.
